Consider four molecules from publication doi:10.1101/2020.10.13.337493 (bioRxiv, 2020).

The chains are these.
B1: N-PH-FFAT construct of OSBP (domain or fragment, human, UniProt P22059 1-408, looked up)
chain: MAATELRGVVGPGPAAIAALGGGGAGPPVVGGGGGRGDAGPGSGAASGTVVAAAAGGPGPGAGGVAAAGPAPAPPTGGSGGSGAGGSGSAREGWLFKWTNYIKGYQRRWFVLSNGLLSYYRSKAEMRHTCRGTINLATANITVEDSCNFIISNGGAQTYHLKASSEVERQRWVTALELAKAKAVKMLAESDESGDEESVSQTDKTELQNTLRTLSSKVEDLSTCNDLIAKHGTALQRSLSELESLKLPAESNEKIKQVNERATLFRITSNAMINACRDFLMLAQTHSKKWQKSLQYERDQRIRLEETLEQLAKQHNHLERAFRGATVLPANTPGNVGSGKDQCCSGKGDMSDEDDENEFFDAPEIITMPENLGHKRTGSNISGASSDISLDEQYKHQLEETKKEKRTR

Series [1] has as its target OSBP Central Core (CC), wild type (human) (UniProt P22059). Nature of the series: SEC.
Series [2] deals with OSBP CC[V199C] construct (V199C/C224A/C276A), labelled with AF-488 or AF-568 (human) (UniProt P22059). Nature of the series: FRET or BRET. (BRET reads energy transfer from a luciferase to a nearby fluorophore.)
The series “cryo-EM structure” concerns the molecule itself. Nature of the series: cryo-EM structure.
Series [3] concerns the target B1. The series can be described thus: membrane tethering in reconstituted contact sites, seen by cryo-EM and cryo-ET.

With “OSBP Central Core (CC), wild type (from UniProt P22059 199-324) (domain or fragment)”, in series [1], the stoichiometry N is 2.

In series [2], “OSBP CC[V199C] construct (V199C/C224A/C276A), labelled with AF-488 or AF-568 (from UniProt P22059 199-324) (domain or fragment)” came in with a half-time of monomer exchange of 100 min.

In the case of B1, the “stoichiometry N” value in “cryo-EM structure” stood at 2.

B2: VAP-A (natural protein, human, UniProt Q9P0L0 8-249, looked up)
chain: MAKHEQILVLDPPTDLKFKGPFTDVVTTNLKLRNPSDRKVCFKVKTTAPRRYCVRPNSGIIDPGSTVTVSVMLQPFDYDPNEKSKHKFMVQTIFAPPNTSDMEAVWKEAKPDELMDSKLRCVFEMPNENDKLNDMEPSKAVPLNASKQDGPMPKPHSVSLNDTETRKLMEECKRLQGEMMKLSEENRHLRDEGLRLRKVAHSDKPGSTSTASFRDNVTSPLPSLLVVIAAIFIGFFLGKFIL
Regarding B2, in the series “cryo-EM structure”, the “stoichiometry N” value is 2. The binding result in series [3] is reported as “binds”.

The stoichiometry N is the number of molecules, sites or subunits per partner or assembly.
